T1: OsNF-YB7-His (Oryza sativa, UniProt A6BLV7 1-254)
T1 sequence: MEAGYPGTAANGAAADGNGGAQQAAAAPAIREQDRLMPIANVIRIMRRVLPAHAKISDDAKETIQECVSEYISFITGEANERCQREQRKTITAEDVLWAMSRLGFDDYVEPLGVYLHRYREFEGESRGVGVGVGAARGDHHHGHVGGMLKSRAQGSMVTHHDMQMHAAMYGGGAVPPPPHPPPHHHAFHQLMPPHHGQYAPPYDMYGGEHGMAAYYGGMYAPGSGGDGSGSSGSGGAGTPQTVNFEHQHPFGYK

T2: OsGLK1-MBP (Oryza sativa, UniProt Q5Z5I4 1-455)
T2 sequence: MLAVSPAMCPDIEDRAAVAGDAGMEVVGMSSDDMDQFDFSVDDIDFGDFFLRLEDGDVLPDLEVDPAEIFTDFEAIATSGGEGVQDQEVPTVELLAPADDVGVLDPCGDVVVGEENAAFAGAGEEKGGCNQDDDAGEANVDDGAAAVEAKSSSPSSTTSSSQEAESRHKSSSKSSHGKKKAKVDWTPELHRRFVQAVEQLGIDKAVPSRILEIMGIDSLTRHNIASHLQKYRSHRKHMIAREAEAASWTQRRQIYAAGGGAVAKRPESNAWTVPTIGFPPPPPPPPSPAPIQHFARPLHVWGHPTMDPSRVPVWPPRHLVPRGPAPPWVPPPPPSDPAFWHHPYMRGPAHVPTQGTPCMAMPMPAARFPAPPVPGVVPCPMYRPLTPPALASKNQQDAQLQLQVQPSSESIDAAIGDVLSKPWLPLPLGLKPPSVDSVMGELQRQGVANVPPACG

B1: OsGLK1 promoter probe (dsDNA)
DNA 1: TTTTGCAGAAGCGACCAAGCTGCACTTGCGCTCGCGGACAAGGCAACCCA
DNA 2: TGGGTTGCCTTGTCCGCGAGCGCAAGTGCAGCTTGGTCGCTTCTGCAAAA
B2: OsPORA promoter probe (dsDNA)
DNA 1: TACGAAAAAATATCCCACCACGTGTCGCTTTCACAGGACAAT
DNA 2: ATTGTCCTGTGAAAGCGACACGTGGTGGGATATTTTTTCGTA
B3: OsLHCB4 promoter probe (dsDNA)
DNA 1: CCCAATCCCAGCCCTCCACGTGTCACCAACCCCATGGC
DNA 2: GCCATGGGGTTGGTGACACGTGGAGGGCTGGGATTGGG

Experiments:
OsNF-YB7-His = target: T1, OsNF-YB7-His; assay: EMSA; Beyotime EMSA/Gel-Shift kit (GS009), manufacturer's conditions; 2 or 4 uM protein in Figure 6G; buffer, salt, pH and temperature not stated; details: protein: recombinant, tags: His (pET-28a), blunt
OsGLK1-MBP = target: T2, OsGLK1-MBP; assay: as above; details: protein: recombinant; tags: MBP (pMAL-c5X); label: biotin (3' hydroxyl end of both strands); blunt
[1] = label: biotin (3' hydroxyl end of both strands)

| Binder | binding result (OsNF-YB7-His; label: biotin) | binding result (OsGLK1-MBP) | binding result (OsNF-YB7-His; [1]) |
| --- | --- | --- | --- |
| B1 | no binding | – | – |
| B2 | – | binds | binds |
| B3 | – | binds | binds |
